Reference: the RNAGym collection of RNA variant scans (doi:10.7554/elife.80360)

B1: CPEB3 Ribozyme (parent)
chain: GGGGGCCACAGCAGAAGCGUUCACGUCGCGGCCCCUGUCAGAUUCUGGUGAAUCUGCGAAUUCUGCUGU

Variants of: B1
Test: self-cleavage, relative activity (ratio to wild type); higher = more cleavage; co-transcriptional
With GGGGGCCACAGCAGAGGCGUUCACGUCGCGGCCCCUGUCAGAUUCUGGUGAAUCUGCGAAUUCUGCAGU [A16G U67A] the self-cleavage was 0.907. GGGGGCCACAGCAGAGGCGUUCACGUCGCGGCCCCUGUCGGAUUCUGGUGAAUCUGCGAAUUCUGCUGU [A16G A40G] gave a self-cleavage of 0.788. GGGGGCCACAGCAGAGGCGUUCACGUCGCGGCCCCUGUCAGAGUCUGGUGAAUCUGCGAAUUCUGCUGU [A16G U43G] showed a self-cleavage of 0.708. In the case of GGGGGCCACAGCAGAUGCGUUCACGUCGCGGCCCCUGUCAGAUUCUGGUGAUUCUGCGAAUUCUGCUGU [A16U A52U], the self-cleavage is reported as 0.801. In the case of GGGGGCCACAGCAGAUGCGUUCACGUCGCGGCCCCUGUCAGAUUCUGGUGACUCUGCGAAUUCUGCUGU [A16U A52C], the self-cleavage is reported as 0.856. Variant GGGGGCCACAGCAGAGGCGUUCACGUCGCGGCCCCUGUCAGAUUCUGGUGAAGCUGCGAAUUCUGCUGU [A16G U53G] has a self-cleavage of 0.784. In the case of GGGGGCCACAGCAGAGGCGUUCACGUCGCGGCCCCUGUCAGAUUCUGGUGAAACUGCGAAUUCUGCUGU [A16G U53A], the self-cleavage is reported as 0.752. GGGGGCCACAGCAGAGGCGUUCACGUCGCGGCCCCUGUCAGAUUCUGGUGAAUCUGCGAAUUCCGCUGU [A16G U64C] showed a self-cleavage of 0.513. For GGGGGCCACAGCAGACGCGUUCACGUCGCGGCCCCUGUCAGAUUCUGGUGAAUCUGCGAAUUCUGCCGU [A16C U67C], the self-cleavage was 0.289. GGGGGCCACAGCAGAGGCGUUCACGUCGCGGCCCCUGUCAGAUUCUGGUGAAUCUGCGAGUUCUGCUGU [A16G A60G] showed a self-cleavage of 0.663. For GGGGGCCACAGCAGAUGCGUUCACGUCGCGGCCCCUGUCAGAUUCUGGUGCAUCUGCGAAUUCUGCUGU [A16U A51C], the self-cleavage was 0.71. In the case of GGGGGCCACAGCAGAGGCGUUCACGUCGCGGCCCCUGUCAGAUUCUGGAGAAUCUGCGAAUUCUGCUGU [A16G U49A], the self-cleavage is reported as 0.598. Work on GGGGGCCACAGCAGAGGCGUUCACGUCGCGGCCCCUGUCAGAUUCUGGCGAAUCUGCGAAUUCUGCUGU [A16G U49C] yielded a self-cleavage of 0.854. Variant GGGGGCCACAGCAGAGGCGUUCACGUCGCGGCCCCUGUCAGAUUCUGGUGACUCUGCGAAUUCUGCUGU [A16G A52C] has a self-cleavage of 0.927. GGGGGCCACAGCAGAGGCCUUCACGUCGCGGCCCCUGUCAGAUUCUGGUGAAUCUGCGAAUUCUGCUGU [A16G G19C] showed a self-cleavage of 0.158. With GGGGGCCACAGCAGAGGCUUUCACGUCGCGGCCCCUGUCAGAUUCUGGUGAAUCUGCGAAUUCUGCUGU [A16G G19U] the self-cleavage was 0.184. In the case of GGGGGCCACAGCAGAGGCAUUCACGUCGCGGCCCCUGUCAGAUUCUGGUGAAUCUGCGAAUUCUGCUGU [A16G G19A], the self-cleavage is reported as 0.163. Variant GGGGGCCACAGCAGAGGCGUUCACGUCGCGGCCCCUGUCAGAUUCUGGUAAAUCUGCGAAUUCUGCUGU [A16G G50A] has a self-cleavage of 0.915. GGGGGCCACAGCAGAGGCGUUCACGUCGCGGCCCCUGUCAGAUUCUGGUCAAUCUGCGAAUUCUGCUGU [A16G G50C] gave a self-cleavage of 0.896. Work on GGGGGCCACAGCAGAGGCGUUCAGGUCGCGGCCCCUGUCAGAUUCUGGUGAAUCUGCGAAUUCUGCUGU [A16G C24G] yielded a self-cleavage of 0.385. Work on GGGGGCCACAGCAGAGGCGUUCAAGUCGCGGCCCCUGUCAGAUUCUGGUGAAUCUGCGAAUUCUGCUGU [A16G C24A] yielded a self-cleavage of 0.481. GGGGGCCACAGCAGAGGCGUUCAUGUCGCGGCCCCUGUCAGAUUCUGGUGAAUCUGCGAAUUCUGCUGU [A16G C24U] showed a self-cleavage of 0.68. Work on GGGGGCCACAGCAGAGGCGUUCACGUCGCGGCCCCUGUCAGAUUCUGGUGAAUCUGCGAAUUCUGAUGU [A16G C66A] yielded a self-cleavage of 0.579. In the case of GGGGGCCACAGCAGAUGCGUUCCCGUCGCGGCCCCUGUCAGAUUCUGGUGAAUCUGCGAAUUCUGCUGU [A16U A23C], the self-cleavage is reported as 0.701. For GGGGGCCACAGCAGAGGCGUUCACGUCGCGGCCCCUGUCAGAUUCUGGUGUAUCUGCGAAUUCUGCUGU [A16G A51U], the self-cleavage was 0.914. GGGGGCCACAGCAGAUGCGUUCACGUCGCGGCCCCUGUCAGUUUCUGGUGAAUCUGCGAAUUCUGCUGU [A16U A42U] showed a self-cleavage of 0.82. Work on GGGGGCCACAGCAGAGGCGUUCACGUCGCGGCACCUGUCAGAUUCUGGUGAAUCUGCGAAUUCUGCUGU [A16G C33A] yielded a self-cleavage of 0.795. GGGGGCCACAGCAGAGGCGUUCACGUCGCGGCCCCUGUCAAAUUCUGGUGAAUCUGCGAAUUCUGCUGU [A16G G41A] showed a self-cleavage of 0.404. With GGGGGCCACAGCAGAGGCGUUCACGUCGCGGCCCCUGUCAGAUUCUGGUGAAUCUGCAAAUUCUGCUGU [A16G G58A] the self-cleavage was 0.932. Work on GGGGGCCACAGCAGAGGCGUUCACGUCGCGGCCCCUGUCAGAUUCUGGUGAAUCUGCUAAUUCUGCUGU [A16G G58U] yielded a self-cleavage of 0.962. With GGGGGCCACAGCAGAGGCGUUCACGUCGCGGCCCCUGUCAGAUUCUGGUGAAUCAGCGAAUUCUGCUGU [A16G U55A] the self-cleavage was 0.659. GGGGGCCACAGCAGAGGCGUUCACGUCGCGGCCCCUGUCAGAUUCUGGUGAAUCGGCGAAUUCUGCUGU [A16G U55G] gave a self-cleavage of 0.67. For GGGGGCCACAGCAGACGCGUUCACGUCGCGGCCCCUGUCAGAUUCUGGUGAAUCUGCGAAUUCUGCUGC [A16C U69C], the self-cleavage was 0.82. With GGGGGCCACAGCAGAGGGGUUCACGUCGCGGCCCCUGUCAGAUUCUGGUGAAUCUGCGAAUUCUGCUGU [A16G C18G] the self-cleavage was 0.129. Variant GGGGGCCACAGCAGAGGCGUUCACGUCGCGGCCCCUGUCAGAUUCUGGUGAAUCUGCGAAUUCUGCUGC [A16G U69C] has a self-cleavage of 1.08. GGGGGCCACAGCAGAGGCGUUCACGUCGCGGCCCCUGUCAGGUUCUGGUGAAUCUGCGAAUUCUGCUGU [A16G A42G] showed a self-cleavage of 0.855. Work on GGGGGCCACAGCAGAGGCGUUCACGUCGCGGCCCCUGUCAGUUUCUGGUGAAUCUGCGAAUUCUGCUGU [A16G A42U] yielded a self-cleavage of 0.83. In the case of GGGGGCCACAGCAGAGGCGUUCACGUCGCGGCCCCUAUCAGAUUCUGGUGAAUCUGCGAAUUCUGCUGU [A16G G37A], the self-cleavage is reported as 0.13. In the case of GGGGGCCACAGCAGAGGCGUUCACGUCGCGGACCCUGUCAGAUUCUGGUGAAUCUGCGAAUUCUGCUGU [A16G C32A], the self-cleavage is reported as 0.607.
